Assay [1] has as its target human Nox5β CaM-binding domain (CMBD) peptide, residues 671-689 (human). Kind of assay: other fluorescence titration.
Assay [2] has as its target N-terminal Dansyl-labeled human Nox5β CMBD peptide (human). Kind of assay: other fluorescence titration.
For assay [3], the target named is MBP-fused human Nox5β dehydrogenase domain residues 665-719 (human) (UniProt Q96PH1). Kind of assay: ITC.
Assay [4] addresses MBP-fused human Nox5β dehydrogenase domain residues 605-719 (human) (UniProt Q96PH1). Kind of assay: ITC. On the technique in general: ITC needs no label: the signal is the heat of the interaction.
Assay [5] has as its target MBP-fused human Nox5β dehydrogenase domain residues 584-719 (human) (UniProt Q96PH1). Kind of assay: ITC.
For assay [6], the target named is human Nox5β CaM-binding domain (CMBD) peptide, residues 671-689 (human). Kind of assay: ITC.
For assay [7], the target named is MBP-fused human Nox5β dehydrogenase domain residues 528-719 (human) (UniProt Q96PH1). Kind of assay: ITC.
Chain of MBP-fused human Nox5β dehydrogenase domain residues 528-719 (human) (Q96PH1 574-765): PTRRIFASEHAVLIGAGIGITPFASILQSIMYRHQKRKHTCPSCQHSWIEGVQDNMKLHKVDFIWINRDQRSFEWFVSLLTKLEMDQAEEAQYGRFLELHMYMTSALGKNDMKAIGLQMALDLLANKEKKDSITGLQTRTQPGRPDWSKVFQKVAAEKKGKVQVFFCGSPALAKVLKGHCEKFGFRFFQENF
The target in assay [8] is human Nox5β CaM-binding domain (CMBD) peptide, residues 671-689 (human). Kind of assay: fluorescence polarisation. (In general: In fluorescence polarisation assays a small probe gives low polarisation when free and higher when bound to something large.)

As a reminder, the stoichiometry N is the number of molecules, sites or subunits per partner or assembly.

Chain of MBP-fused human Nox5β dehydrogenase domain residues 584-719 (human) (Q96PH1 630-765): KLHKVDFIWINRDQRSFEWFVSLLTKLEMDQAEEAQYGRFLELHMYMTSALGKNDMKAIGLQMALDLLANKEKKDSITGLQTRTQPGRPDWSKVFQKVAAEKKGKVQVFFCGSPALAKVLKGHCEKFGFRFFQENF
Chain of MBP-fused human Nox5β dehydrogenase domain residues 605-719 (human) (Q96PH1 651-765): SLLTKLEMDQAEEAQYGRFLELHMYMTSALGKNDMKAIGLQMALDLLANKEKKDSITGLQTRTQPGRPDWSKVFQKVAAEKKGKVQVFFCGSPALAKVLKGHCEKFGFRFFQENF
Chain of MBP-fused human Nox5β dehydrogenase domain residues 665-719 (human) (Q96PH1 711-765): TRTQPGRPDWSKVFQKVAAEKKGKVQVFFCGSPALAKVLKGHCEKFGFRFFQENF

Consider “recombinant 6xHis-tagged calmodulin (from UniProt P0DP23 1-149) (natural protein)”, for which the stoichiometry N ([peptide]/Protein]) is 2.1 in assay [1]; 2.11 in assay [2]; 1.15 in assay [3]; 1.15 in assay [4]; 1.04 in assay [5]; 1.79 in assay [6]. Further, the stoichiometry N ([peptide]/Protein]) worked out at 1.18 in assay [7] and 1.91 in assay [8]. Besides, the dH in assay [3] is -8.21 kcal/mol; in assay [4] it was -14.8 kcal/mol; in assay [5], -16.8 kcal/mol; in assay [7], -19 kcal/mol. The dH (per mole protein) in assay [6] was -7.85 kcal/mol. In assay [6], this substance displayed a stoichiometry N of 0.521.

These data come from PMC8777244.
